From publication PMC11730874

What was measured:
[1] = molecular target: T1, KIF17-mCitrine, Q9P2E2; experiment: pull-down (His-tag magnetic beads) with Western blot densitometry; settings: chain shown with the change; Rab23 proteins exchanged with GMPPNP; lysates from HEK293 cells transfected with KIF17-mCitrine; n = 3 independent experiments; parent: 100.00
T1 chain: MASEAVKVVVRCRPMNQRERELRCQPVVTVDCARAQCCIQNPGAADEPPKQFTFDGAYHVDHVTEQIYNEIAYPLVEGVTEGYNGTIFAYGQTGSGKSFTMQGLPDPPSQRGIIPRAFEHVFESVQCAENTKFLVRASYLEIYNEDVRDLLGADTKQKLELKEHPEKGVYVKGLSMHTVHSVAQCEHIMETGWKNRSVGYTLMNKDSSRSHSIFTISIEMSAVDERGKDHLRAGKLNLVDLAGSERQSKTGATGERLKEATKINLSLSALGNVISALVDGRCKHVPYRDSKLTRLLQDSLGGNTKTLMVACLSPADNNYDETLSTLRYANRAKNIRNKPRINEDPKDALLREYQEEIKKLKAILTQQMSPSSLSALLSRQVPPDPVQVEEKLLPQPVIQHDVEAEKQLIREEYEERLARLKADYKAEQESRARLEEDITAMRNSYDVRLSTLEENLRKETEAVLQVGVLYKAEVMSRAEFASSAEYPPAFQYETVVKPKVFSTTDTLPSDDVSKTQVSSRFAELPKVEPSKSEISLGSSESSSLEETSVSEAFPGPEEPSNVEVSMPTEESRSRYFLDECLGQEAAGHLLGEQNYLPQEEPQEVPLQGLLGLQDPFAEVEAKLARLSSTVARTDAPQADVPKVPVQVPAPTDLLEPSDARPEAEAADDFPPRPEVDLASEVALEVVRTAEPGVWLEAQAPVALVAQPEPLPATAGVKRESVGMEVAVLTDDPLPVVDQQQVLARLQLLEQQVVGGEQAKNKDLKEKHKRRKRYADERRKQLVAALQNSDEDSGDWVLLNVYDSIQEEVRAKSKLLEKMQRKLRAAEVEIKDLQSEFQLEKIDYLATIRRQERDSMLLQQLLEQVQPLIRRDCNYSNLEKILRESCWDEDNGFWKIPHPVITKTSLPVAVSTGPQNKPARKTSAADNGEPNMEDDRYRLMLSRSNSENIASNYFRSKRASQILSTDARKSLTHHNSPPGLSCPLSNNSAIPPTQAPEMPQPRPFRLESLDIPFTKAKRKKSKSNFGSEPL

[2] = molecular target: T2, WT hRab23_(7-172) (untagged) (human) (UniProt Q9ULC3)
T2 sequence: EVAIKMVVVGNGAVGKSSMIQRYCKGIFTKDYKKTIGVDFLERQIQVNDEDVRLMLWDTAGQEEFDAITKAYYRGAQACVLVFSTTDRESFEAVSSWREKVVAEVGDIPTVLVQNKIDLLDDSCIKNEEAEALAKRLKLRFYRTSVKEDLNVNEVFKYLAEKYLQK

[3] = molecular target: T3, hRab23_(7-172) Y79del (untagged) (human) (UniProt Q9ULC3)
T3 sequence: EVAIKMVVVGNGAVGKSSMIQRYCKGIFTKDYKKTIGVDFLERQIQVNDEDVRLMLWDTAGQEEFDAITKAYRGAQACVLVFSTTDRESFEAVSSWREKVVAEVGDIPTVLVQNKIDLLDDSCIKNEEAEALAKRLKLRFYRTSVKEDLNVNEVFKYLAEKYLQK

[4] = molecular target: T2, WT hRab23_(7-172) (untagged) (human); remark: listed apart in the source
[5] = molecular target: T3, hRab23_(7-172) Y79del (untagged) (human); remark: listed apart in the source

B1: His-SUMO-tagged WT hRab23_(7-172), GMPPNP-loaded, Q9ULC3 Y79del (protein)
chain: T3 sequence
percent of parent [1]: 54.2%

B2: Inturned-Fuzzy (Intu-Fuz) complex (complex)
chain 1: MASVASCDSRPSSDELPGDPSSQEEDEDYDFEDRVSDSGSYSSASSDYDDLEPEWLDSVQKNGELFYLELSEDEEESLLPETPTVNHVRFSENEIIIEDDYKERKKYEPKLKQFTKILRRKRLLPKRCNKKNSNDNGPVSILKHQSNQKTGVIVQQRYKDVNVYVNPKKLTVIKAKEQLKLLEVLVGIIHQTKWSWRRTGKQGDGERLVVHGLLPGGSAMKSGQVLIGDVLVAVNDVDVTTENIERVLSCIPGPMQVKLTFENAYDVKRETSHPRQKKTQSNTSDLVKLLWGEEVEGIQQSGLNTPHIIMYLTLQLDSETSKEEQEILYHYPMSEASQKLKSVRGIFLTLCDMLENVTGTQVTSSSLLLNGKQIHVAYWKESDKLLLIGLPAEEVPLPRLRNMIENVIQTLKFMYGSLDSAFCQIENVPRLDHFFNLFFQRALQPAKLHSSASPSAQQYDASSAVLLDNLPGVRWLTLPLEIKMELDMALSDLEAADFAELSEDYYDMRRLYTILGSSLFYKGYLICSHLPKDDLIDIAVYCRHYCLLPLAAKQRIGQLIIWREVFPQHHLRPLADSSTEVFPEPEGRYFLLVVGLKHYMLCVLLEAGGCASKAIGSPGPDCVYVDQVKTTLHQLDGVDSRIDERLASSPVPCLSCADWFLTGSREKTDSLTTSPILSRLQGTSKVATSPTCRRTLFGDYSLKTRKPSPSCSSGGSDNGCEGGEDDGFSPHTTPDAVRKQRESQGSDGLEESGTLLKVTKKKSTLPNPFHLGNLKKDLPEKELEIYNTVKLTSGPENTLFHYVALETVQGIFITPTLEEVAQLSGSIHPQLIKNFHQCCLSIRAVFQQTLVEEKKKGLNSGDHSDSAKSVSSLNPVKEHGVLFECSPGNWTDQKKAPPVMAYWVVGRLFLHPKPQELYVCFHDSVTEIAIEIAFKLFFGLTL
chain 2: MGEEGTGGTVHLLCLAASSGVPLFCRSSRGGAPARQQLPFSVIGSLNGVHMFGQNLEVQLSSARTENTTVVWKSFHDSITLIVLSSEVGISELRLERLLQMVFGAMVLLVGLEELTNIRNVERLKKDLRASYCLIDSFLGDSELIGDLTQCVDCVIPPEGSLLQEALSGFAEAAGTTFVSLVVSGRVVAATEGWWRLGTPEAVLLPWLVGSLPPQTARDYPVYLPHGSPTVPHRLLTLTLLPSLELCLLCGPSPPLSQLYPQLLERWWQPLLDPLRACLPLGPRALPSGFPLHTDILGLLLLHLELKRCLFTVEPLGDKEPSPEQRRRLLRNFYTLVTSTHFPPEPGPPEKTEDEVYQAQLPRACYLVLGTEEPGTGVRLVALQLGLRRLLLLLSPQSPTHGLRSLATHTLHALTPLL
GTPase-Glo luminescence (remaining GTP) relative to buffer control, GEF-aided nucleotide exchange; 3 uM Rab23, 2.25 uM Intu-Fuz, 5 uM GTP, 30 °C, 2 h [2]: 17.4% | GTPase-Glo luminescence (remaining GTP) relative to buffer control, GEF-aided nucleotide exchange; 3 uM Rab23 Y79del, 2.25 uM Intu-Fuz, 5 uM GTP, 30 °C, 2 h [3]: 78.2%

B3: ecotropic viral integration site 5-like protein (EVI5L) (enzyme)
chain: MASPTLSPDSSSQEALSAPTCSPTSDSENLSPDELELLAKLEEQNRLLEADSKSMRSMNGSRRNSGSSLVSSSSASSNLSHLEEDTWILWGRIANEWEEWRRRKEKLLKELIRKGIPHHFRAIVWQLLCSATDMPVKNQYSELLKMSSPCEKLIRRDIARTYPEHEFFKGQDSLGQEVLFNVMKAYSLVDREVGYCQGSAFIVGLLLMQMPEEEAFCVFVRLMQEYRLRELFKPSMAELGLCIYQFEYMLQEQLPDLNTHFRSQSFHTSMYASSWFLTLFLTTFPLPVATRVFDIFMYEGLEIVFRVGLALLQVNQAELMQLDMEGMSQYFQRVIPHQFDSCPDKLVLKAYQVKYNPKKMKRLEKEYAAMKSKEMEEQIEIKRLRTENRLLKQRIETLEKGQVTRAQEAEENYVIKRELAVVRQQCSSAAEDLQKAQSTIRQLQEQQENPRLTEDFVSHLETELEQSRLRETETLGALREMQDKVLDMEKRNSSLPDENNVAQLQEELKALKVREGQAVASTRELKLQLQELSDTWQAHLARGGRWKESPRKLVVGELQDELMSVRLREAQALAEGRELRQRVVELETQDHIHRNLLNRVEAERAALQEKLQYLAAQNKGLQTQLSESRRKQAEAECKSKEEVMAVRLREADSMAAVAEMRQRIAELEIQREEGRIQGQLNHSDSSQYIRELKDQIEELKAEVRLLKGPPPFEDPLAFDGLSLARHLDEDSLPSSDEELLGVGVGAALQDALYPLSPRDARFFRRLERPAKDSEGSSDSDADELAAPYSQGLDN
GTPase-Glo luminescence (remaining GTP) relative to buffer control, GAP-stimulated GTPase activity; 3 uM Rab23, 2.25 uM EVI5L, 5 uM GTP, 20 mM EDTA, 30 °C, 2 h [4]: 58% | GTPase-Glo luminescence (remaining GTP) relative to buffer control, GAP-stimulated GTPase activity; 3 uM Rab23 Y79del, 2.25 uM EVI5L, 5 uM GTP, 20 mM EDTA, 30 °C, 2 h [5]: 75.7%
